pKa data for three molecules are collected here from PMC3261180.

In one data set the target is Asp87 (UniProt position 88, ALAVVDPGESR). Description: NMR.
In the next data set the target is Glu6 (UniProt position 7, VDFAFELKKAQ). Description: NMR.
Another data set addresses Asp2 (UniProt position 3, ---MVDFAFEL). Description: NMR.
For another data set, the target named is Asp44 (UniProt position 45, RNAKPDIKEDI). Kind of data set: NMR.
The next data set concerns the target Asp48 (UniProt position 49, PDIKEDIEYYA). Kind of data set: NMR.
The next data set addresses Glu64 (UniProt position 65, PVYEFEGTSVE). Description: NMR.
For the next data set, the target named is Glu62 (UniProt position 63, GIPVYEFEGTS). Kind of data set: NMR.
For another data set, the target named is Glu50 (UniProt position 51, IKEDIEYYAKL). Description: NMR.
The target in another data set is Glu47 (UniProt position 48, KPDIKEDIEYY). Description: NMR.
The target of the next data set is Asp12 (UniProt position 13, LKKAQDTGKIV). Description: NMR.
For the next data set, the target named is Glu100 (UniProt position 101, ALGGKE-----). Kind of data set: NMR.
A further data set has as its target Glu90 (UniProt position 91, VVDPGESRILA). Kind of data set: NMR.
A further data set concerns the target Glu69 (UniProt position 70, EGTSVELGTLL). Kind of data set: NMR.
Data set [1] deals with Glu3 (position 3, ---GGEGG---). Description: potentiometry.
Data set [2] concerns the target Asp3 (position 3, ---GGDGG---). Description: potentiometry.
Where [3] appears, read: 298 K, 5.4 M guanidine-HCl, not stated for the denatured samples, unfolded (guanidine-denatured).
The mark [4] stands for this setting: 298 K, low ionic strength, 10 mM sodium citrate/phosphate, no added salt stated, folded (native).
[5] abbreviates: 333 K, 5.4 M guanidine-HCl, not stated for the denatured samples, unfolded (guanidine-denatured).
Where [6] appears, read: 333 K, low ionic strength, 10 mM sodium citrate/phosphate, no added salt stated, folded (native).
[7] abbreviates: 298 K, 5.4 M guanidine hydrochloride, free peptide in 5.4 M GdnHCl.
Setting [8] is: 298 K, no added salt (peptide in nano-pure water), free peptide, no denaturant.
Setting [9] is: 333 K, 5.4 M guanidine hydrochloride, free peptide in 5.4 M GdnHCl.
Where [10] appears, read: 333 K, no added salt (peptide in nano-pure water), free peptide, no denaturant.

In general, pKa refers to the negative logarithm of the acid dissociation constant. In the case of “50S ribosomal protein L30e, 5R->K variant (L30e*) (Thermococcus celer; R8K;R21K;R42K;R54K;R76K)”, the pKa is 3.54±0.02 with Asp87 (setting [3]); 2.50±0.02 with Asp87 (setting [4]); 3.47±0.02 in the data set with Asp87 (setting [5]); 2.49±0.03 in the data set with Asp87 (setting [6]); 4.17±0.02 with Glu6 (setting [3]); 2.34±0.03 with Glu6 (setting [4]). In addition, the pKa with Glu6 (setting [5]) was 4.00±0.02; in the data set with Glu6 (setting [6]), 2.38±0.04; in the data set with Asp2 (setting [3]), 3.62±0.01; in the data set with Asp2 (setting [4]) it was 3.13±0.04; with Asp2 (setting [5]) it was 3.53±0.02; in the data set with Asp2 (setting [6]), 3.09±0.05. Besides, the pKa was 3.62±0.01 with Asp44 (setting [3]); 3.08±0.04 in the data set with Asp44 (setting [4]); 3.52±0.02 with Asp44 (setting [5]); 2.88±0.04 with Asp44 (setting [6]); 3.56±0.02 with Asp48 (setting [3]); 4.14±0.04 with Asp48 (setting [4]). Also, the pKa in the data set with Asp48 (setting [5]) came to 3.46±0.02; in the data set with Asp48 (setting [6]) it was 4.24±0.04; with Glu64 (setting [3]), 4.17±0.02; with Glu64 (setting [4]) it was 4.10±0.06; with Glu64 (setting [5]), 4.00±0.02; with Glu64 (setting [6]), 4.06±0.07. For the same molecule, the pKa in the data set with Glu62 (setting [3]) was found to be 4.19±0.02; in the data set with Glu62 (setting [4]), 3.20±0.06; in the data set with Glu62 (setting [5]), 4.03±0.02; in the data set with Glu62 (setting [6]) it was 3.30±0.06; with Glu50 (setting [3]), 4.16±0.02; with Glu50 (setting [4]), 5.10±0.07. Moreover, the pKa in the data set with Glu50 (setting [5]) is 4.02±0.03; with Glu50 (setting [6]) it was 5.00±0.06; with Glu47 (setting [3]), 4.17±0.02; in the data set with Glu47 (setting [4]) it was 4.53±0.04; with Glu47 (setting [5]), 4.00±0.02; in the data set with Glu47 (setting [6]), 4.56±0.04. Further, the pKa in the data set with Asp12 (setting [3]) is 3.56±0.02; with Asp12 (setting [4]), 3.69±0.02; in the data set with Asp12 (setting [5]), 3.46±0.02; with Asp12 (setting [6]), 3.69±0.03; in the data set with Glu100 (setting [3]) it was 4.19±0.02; in the data set with Glu100 (setting [4]), 4.31±0.03. For the same molecule, the pKa with Glu100 (setting [5]) is on record as 4.06±0.02; with Glu100 (setting [6]), 4.38±0.05; with Glu90 (setting [3]) it was 4.16±0.02; with Glu90 (setting [4]), 4.17±0.02; in the data set with Glu90 (setting [5]), 4.02±0.03; with Glu90 (setting [6]), 4.24±0.02. For the same molecule, the pKa in the data set with Glu69 (setting [3]) is reported as 4.19±0.02; in the data set with Glu69 (setting [4]), 3.79±0.03; in the data set with Glu69 (setting [5]), 4.01±0.03; with Glu69 (setting [6]), 3.82±0.03.
With GGEGG [Model pentapeptide Ac-GGEGG-NH2 (synthetic)], the pKa in data set [1] (setting [7]) came to 4.18±0.04; in [1] (setting [8]), 4.17±0.03; in data set [1] (setting [9]), 4.10±0.02; in data set [1] (setting [10]), 4.10±0.01.
For the molecule GGDGG [Model pentapeptide Ac-GGDGG-NH2 (synthetic)], the pKa in data set [2] (setting [7]) stood at 3.70±0.01; in [2] (setting [8]), 3.69±0.03; in [2] (setting [9]) it was 3.64±0.02; in [2] (setting [10]), 3.61±0.02.
